Test results reported in US10227575B2, “Multi-domain enzymes having cutinase activity, compositions comprising same and uses thereof” (OZYMES, priority 2015, dated 2019).
Values joined by “and” are separate entries in the source; they are usually repeats but may differ in a detail not shown here. Identical values can stand only once. Like-named read-outs stand apart in the source and are kept apart here. Marks after values point to notes of the source that are not given here.

Experiments:
[1] = Activity of crude culture supernatants from bioreactor; type: biochemical; details: pNP-dodecanoate
[2] = Specific activity of purified enzymes (standard esterase assay); type: biochemical
Description: In summary, using different techniques for enzyme purification, pure enzyme preparations were obtained and tested for their activity towards a standard esterase substrate, pNP-palmitate. Enzymatic activities of the purified variants are summarized below:
(§1) Esterase activity was determined by monitoring the formation of para-nitrophenol (pNP) at 410 nm from various pNP-esters using a Beckman UV spectrophotometer (model DU 640). Substrates were completely dissolved in 2-propanol (8 mM) and were then added to 50 mM Tris/HCl buffer pH 8.0 to give a final substrate concentration of 0.8 mM. The reaction (1 mL) was started by adding an appropriate amount of enzyme. One enzyme unit (U) was defined as the amount of enzyme that produced 1 μmol of product (pNP) per min; specific activity was expressed as U/mg protein. A molar extinction coefficient of 15 mM^−1 cm^−1 was used for the calculation.

[3] = Enzyme substrate profiles, esterase assays; type: biochemical; details: highest activity towards a specific substrate set to 100%
Description: as §1

Temperature optimum = type: biochemical; details: for Relative activity at temperature: highest activity set to 100%
Description: For estimation of the temperature optimum, buffer containing pNP-palmitate (see esterase assay in Example 20.1) was pre-incubated to reach the desired temperature, enzyme was then added, and the formation of pNP was assayed. For this experiment, Tris/HCl buffer was replaced with sodium phosphate buffer (50 mM, pH 8.0) to avoid a pH shift at the different temperatures.

[4] = Enzymatic activity in the presence of organic solvents; type: biochemical; details: buffer only = 100%
Description: Enzyme activity in various organic solvents was studied over a concentration range of 1-30% at room temperature. pNP-palmitate was completely dissolved in 2-propanol (8 mM) and then added to 50 mM Tris/HCl buffer pH 8.0 containing up to 30% organic solvent to give a final substrate concentration of 0.8 mM. The reaction was started by addition of enzyme and the formation of pNP was assayed as described above in Example 20.1.

pH dependence of enzymes = type: biochemical; details: for Relative activity (%): highest activity = 100%
Description: The influence of different pH values (from 5.5 to 11) on the activities of the purified enzymes was examined in three buffer systems (sodium acetate, sodium phosphate, and Tris-HCl) at room temperature using pNP-palmitate (see esterase assay in Example 20.1) as a substrate at a final substrate concentration of 0.8 mM.

[5] = Stability in the presence of hydrogen peroxide; type: physicochemical
Description: as §1
Purified cutinases were incubated at room temperature in the presence of 0, 30, 100, 300, 1500, and 3000 ppm of hydrogen peroxide. Residual enzyme activity was assayed (see Example 20.1) after 1, 2, 3, and 7 days of incubation.

[6] = type: biochemical, Petromyces albertensis; details: for Residual ochratoxin A (%): 5 ppm Ochratoxin A, 37° C., relative to incubation without enzyme
Description: The enzymes purified in Example 18 were tested for their ability to degrade the mycotoxin Ochratoxin A. In general, the mycotoxin was incubated with different concentrations of the enzyme, and the remaining mycotoxin concentration, as well the respective degradation products, were monitored by LC-MS over time (where possible/applicable).
Reactions were performed in 1 mL volumes in glass HPLC vials comprising the mycotoxin to be analyzed and the enzyme to be tested. For Ochratoxin A (Petromyces albertensis, 01877 Sigma), 50 μL of a 100 ppm stock solution in methanol (final concentration of 5 ppm) was added to 910 μL of distilled water and 40 μL of the enzyme to be tested. In control reactions, the volume of enzyme was substituted with distilled water. The reactions were incubated in an Eppendorf thermomixer at 37° C. with shaking at 750 rpm. 100 μL samples were withdrawn at 1, 4 and 24 h for chromatographic analysis.
Mycotoxin analysis was carried out using a Shimadzu LCMS-2020 equipped with a UV/vis detector. Chromatographic separation of 10 μL injected sample was carried out at 30° C. on a Kinetex 2.6 μm XB-C18 column 100 Å (50×2.1 mm) using a binary gradient. For Ochratoxin A, eluent A consisted of water and eluent B consisted of acetonitrile and the UV detection wavelength was 360 nm.
The five enzymes tested were screened for their ability to degrade 5 ppm (5,000 ppb) Ochratoxin A at 37° C.

B1: CfCUT: mature wild-type cutinase from Cellulomonas flavigena, SEQ ID NO: 28 (protein, listed as Cellulomonas flavigena)
chain: APACPDVELVFARGTGEAAGLGIVGRPLERALAAELPGRTVVATAVDYAASSSQASAGPGSGDMVAKVRSRAAACPGTQFVLGGYSQGATVTDLALGIRTGVTAGTALPEDLAARVAAVVVYGNPLGLTRRTIAQAAPAFATRTVEYCNAGDPVCEPGGGRFTAHITYATNGTVLEGARFAAARVTAPAPTPTPGPTGTPAPVPSAEPTPAPGDTCVTASSLQHVRDGRAYPLWMRTYARGSGDPLGVLSSRTVVSLQADGTDTWRKVAAC
activity of crude culture supernatant [1]: 0.5 U/mL
Enzymatic activity of the purified variant ([2]; pNP-palmitate): 26 ± 1 U/mg
Spec. Act. (U/mg) ([2]; towards pNP-palmitate (standard assay)): 26 ± 1 U/mg
Relative activity, pNP-acetate (C2) [3]: 6%
Relative activity, pNP-butyrate (C4) [3]: 93 ± 8%
Relative activity, pNP-caprylate (C8) [3]: 11 ± 2%
Relative activity, pNP-decanoate (C10) [3]: 40 ± 5%
Relative activity, pNP-myristate (C14) [3]: 47 ± 8%
Relative activity, pNP-palmitate (C16) [3]: 100* %
Temp. opt. (° C.) (Temperature optimum): 25 °C
Relative activity at temperature (Temperature optimum; 20 ° C.): 69 ± 2%
Relative activity at temperature (Temperature optimum; 25 ° C.): 100* %
Relative activity at temperature (Temperature optimum; 30 ° C.): 63 ± 7%
Relative activity at temperature (Temperature optimum; 35 ° C.): 45 ± 5%
Relative activity at temperature (Temperature optimum; 40 ° C.): 38 ± 8%
Relative activity at temperature (Temperature optimum; 45 ° C.): 1%
Relative enzymatic activity (%) ([4]; 2-Propanol 5% (v/v)): 70 ± 3%
Relative enzymatic activity (%) ([4]; 2-Propanol 10% (v/v)): 17 ± 8%
Relative enzymatic activity (%) ([4]; Acetone 1% (v/v)): 92 ± 9%
Relative enzymatic activity (%) ([4]; Acetone 5% (v/v)): 95 ± 1%
Relative enzymatic activity (%) ([4]; Acetone 10% (v/v)): 52 ± 5%
Relative enzymatic activity (%) ([4]; Dimethyl sulfoxide (DMSO) 10% (v/v)): 105 ± 11%
Relative enzymatic activity (%) ([4]; Dimethyl sulfoxide (DMSO) 20% (v/v)): 107 ± 1%
Relative enzymatic activity (%) ([4]; Dimethyl sulfoxide (DMSO) 30% (v/v)): 57 ± 15%
Relative enzymatic activity (%) ([4]; Dimethylformamide (DMF) 5% (v/v)): 101 ± 17%
Relative enzymatic activity (%) ([4]; Methanol 10% (v/v)): 115 ± 11%
Relative enzymatic activity (%) ([4]; Methanol 20% (v/v)): 62 ± 3%
pH opt. (pH dependence of enzymes): 9.5
Relative activity (%) (pH dependence of enzymes; pH 6.5, sodium phosphate buffer): 13 ± 2%
Relative activity (%) (pH dependence of enzymes; pH 7.0, sodium phosphate buffer): 40 ± 4%
Relative activity (%) (pH dependence of enzymes; pH 7.5, sodium phosphate buffer): 65 ± 5%
Relative activity (%) (pH dependence of enzymes; pH 8.0, Tris/HCl): 62 ± 2%
Relative activity (%) (pH dependence of enzymes; pH 8.5, Tris/HCl): 85 ± 6%
Relative activity (%) (pH dependence of enzymes; pH 9.0, Tris/HCl): 93 ± 9%
Relative activity (%) (pH dependence of enzymes; pH 9.5, Tris/HCl): 100* %
Relative activity (%) (pH dependence of enzymes; pH 10, Tris/HCl): 31 ± 1%
Relative activity (%) after exposure to hydrogen peroxide ([5]; H2O2 30 ppm, Day 0): 101 ± 22%
Relative activity (%) after exposure to hydrogen peroxide ([5]; H2O2 30 ppm, Day 1): 89 ± 8%
Relative activity (%) after exposure to hydrogen peroxide ([5]; H2O2 30 ppm, Day 2): 82 ± 8%
Relative activity (%) after exposure to hydrogen peroxide ([5]; H2O2 30 ppm, Day 3): 76 ± 6%
Relative activity (%) after exposure to hydrogen peroxide ([5]; H2O2 30 ppm, Day 7): 72 ± 7%
Relative activity (%) after exposure to hydrogen peroxide ([5]; H2O2 100 ppm, Day 0): 92 ± 5%
Relative activity (%) after exposure to hydrogen peroxide ([5]; H2O2 100 ppm, Day 1): 114 ± 15%
Relative activity (%) after exposure to hydrogen peroxide ([5]; H2O2 100 ppm, Day 2): 118 ± 15%
Relative activity (%) after exposure to hydrogen peroxide ([5]; H2O2 100 ppm, Day 3): 92 ± 11%
Relative activity (%) after exposure to hydrogen peroxide ([5]; H2O2 100 ppm, Day 7): 94 ± 7%
Relative activity (%) after exposure to hydrogen peroxide ([5]; H2O2 300 ppm, Day 0): 93 ± 12%
Relative activity (%) after exposure to hydrogen peroxide ([5]; H2O2 300 ppm, Day 1): 106 ± 20%
Relative activity (%) after exposure to hydrogen peroxide ([5]; H2O2 300 ppm, Day 2): 118 ± 12%
Relative activity (%) after exposure to hydrogen peroxide ([5]; H2O2 300 ppm, Day 3): 102 ± 14%
Relative activity (%) after exposure to hydrogen peroxide ([5]; H2O2 300 ppm, Day 7): 106 ± 13%
Relative activity (%) after exposure to hydrogen peroxide ([5]; H2O2 1,500 ppm, Day 0): 126 ± 1%
Relative activity (%) after exposure to hydrogen peroxide ([5]; H2O2 1,500 ppm, Day 1): 106 ± 12%
Relative activity (%) after exposure to hydrogen peroxide ([5]; H2O2 1,500 ppm, Day 2): 109 ± 2%
Relative activity (%) after exposure to hydrogen peroxide ([5]; H2O2 1,500 ppm, Day 3): 95 ± 4%
Relative activity (%) after exposure to hydrogen peroxide ([5]; H2O2 1,500 ppm, Day 7): 54 ± 16%
Relative activity (%) after exposure to hydrogen peroxide ([5]; H2O2 3,000 ppm, Day 0): 128% and 128 ± 18%
Relative activity (%) after exposure to hydrogen peroxide ([5]; H2O2 3,000 ppm, Day 1): 115 ± 2%
Relative activity (%) after exposure to hydrogen peroxide ([5]; H2O2 3,000 ppm, Day 2): 99 ± 23%
Relative activity (%) after exposure to hydrogen peroxide ([5]; H2O2 3,000 ppm, Day 3): 60 ± 6%
Relative activity (%) after exposure to hydrogen peroxide ([5]; H2O2 3,000 ppm, Day 7): 35% and 35 ± 1%
Residual ochratoxin A (%) ([6]; 1 h): 11%
Residual ochratoxin A (%) ([6]; 4 h): 2%
Residual ochratoxin A (%) ([6]; 24 h): 0%
Ochratoxin A Degradation per U and h ([6]; per 1 U of enzyme (pNP standard test) and hour at 37° C.): 3 µmol
